Laboratory results reported in the supplement of paper PMC7125110.
± gives the standard error. This sample holds only a part of the variants without activity.

B1: glmS ribozyme (parent)
chain: AUAAAAGCGCCAGAACUACAGAAAUGUAGUUGACGAGGAGGAGGUUUAUCGAAUUUUCGGCGGAUGCCUCCAAA

Variants of: B1
Assay: self-cleavage kobs at 2500 uM GlcN6P; higher = faster cleavage; RNA array
Conditions: with glucosamine-6-phosphate
Method in brief: (§1)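 Ribozyme variants carrying barcodes were transcribed in situ on sequenced MiSeq chips by E. coli RNA polymerase and tracked at 37 °C with a hybridised Cy3 probe. They were exposed to 40 μM to 10 mM glucosamine-6-phosphate in HEPES/KCl/Mg(OAc)2 buffer. kobs came from exponential decay fits of normalised per-tile medians, and kcat and KM from weighted Michaelis–Menten fits.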

| Variant | self-cleavage kobs at 2500 uM GlcN6P [s⁻¹] |
| --- | --- |
| AUAAAAGCGCCAGAAGUACAGAAAUGUAAUUGACGAAGAGGAGGUUUAGUGAAUUUUCGGCGGAUGCCUCCAAA [C16G G29A G37A U49G C50U] | < 1e-05 |
| AUAAAAGCGCCAGAACUACAGAAAUUUAGUUGACGAGGAGGAGGUUUGUCGAAUUUUCGGCGGAUGCCUCCAAA [G26U A48G] | 7.11e-05 ± 1.8e-05 |
| AUAAAAGCGCCAGAAGUACAGAAAUGUAGUUGACGAGGAGGAGGUUUAUCGAAUUUUCGGCGGAUACCGCCAAA [C16G G66A U69G] | 5.74e-05 ± 2.8e-05 |
| AUAAAAGCGCCAGAACUACAGAAAUGUACUUGAGGAGGAGGAGGUUUAUCUAAAUUUCGGCGGAAGCCUUCAAA [G29C C34G G51U U54A U65A C70U] | < 1e-05 |
| AUAAAAGCGCCAGAAGUACAGAAAUGUAGUUGACGAGGAGGAGGUUUAUCGAACUUUCGGCGGAUGCCUUCAAA [C16G U54C C70U] | 0.00152 ± 0.00038 |
| AUAAAAGCGCCAGAAUUACAGAAAUGUAGUUGACGAGGAGGAGGUUUAUGGAAAUUUCGGCGGAUGCCUCCAAA [C16U C50G U54A] | 9.89e-05 ± 3.1e-05 |
| AUAAAAGCGCCAGAACUACAGAAAUUUAUUUGACGAGGAGGAGGUUUAUCGAAUAUUCGGCGGAUGCCUACAAA [G26U G29U U55A C70A] | 8.18e-05 ± 2.7e-05 |
| AUAAAAGCGCCAGAACUACAGAAAUGUACUUGACGAGGAGGAGGUUUAUCGAAUUUUCAGCGGAUCCCUCCAAA [G29C G59A G66C] | < 1e-05 |
| AUAAAAGCGCCAGAAAUACAGAAAUGUAGUUGACGAGGAGGAGGUUUAUCGAAUUUUCGGCGGAUACCUCGAAA [C16A G66A C71G] | 5.24e-05 ± 2.5e-05 |
| AUAAAAGCGCCAGAAAUACAGAAAUGUAGAUGACGAGGAGGAGGUUUAUCGAAUUUUCGGCGGAAGCCUCCAAA [C16A U30A U65A] | 5.07e-05 ± 1.8e-05 |
| AUAAAAGCGCCAGAAGUACAGAAAUGUAGUUGACGAGGAGGAGGUUUAUAGAAUUUUCGGCGGAUGCCUACAAA [C16G C50A C70A] | 8.7e-05 ± 2.4e-05 |
| AUAAAAGCGCCAGAACUACAGAAAUGUAAUUGACCAGGAGGAGGUUUAUCGAAUUUUCGGCGGAUGCCUCAAAA [G29A G35C C71A] | < 1e-05 |
| AUAAAAGCGCCAGAAGUACAGAAAUGUAGUUGACGAGGAGGAGUUUUAUCGAAUUUUCGGCGGAUGCCUACAAA [C16G G44U C70A] | < 1e-05 |
| AUAAAAGCGCCAGAAAUACAGAAAUGUAGUGUACGAGGAGGAGGUUUAUCGAAUUUUCGGCGGAUGCCUCCAAA [C16A U31G G32U] | 9.46e-05 ± 1.9e-05 |
| AUAAAAGCGCCAGAACUACAGAAAUGUACUUGACGAGGCGGAGGUUUUCCGAAUUUACGAAGGAUGACUCCAAA [G29C A39C A48U U49C U57A G60A C61A C67A] | < 1e-05 |
| AUAAAAGCGCCAGAAUUACAGAAAUGUAAUUGACGAGGAGUAGGUUUAUCUAAUUUUCGGCGGAUGCCUCCAAA [C16U G29A G41U G51U] | < 1e-05 |
| AUAAAAGCGCCAGAAUUACAGAAAUGUAGUUGACGAGGAGGAGGUUUAUCGAAUUCUCGGCGAAUUCCUCCAAA [C16U U56C G63A G66U] | < 1e-05 |

| Variant | self-cleavage kobs at 2500 uM GlcN6P [s⁻¹] |
| --- | --- |
| AUAAAAGCGCCAGAACUACAGAAAUGUACUUGACGUGGAGGAGGUUUAUCGGAUUUUCGGCGGAUGCCUCCAAA [G29C A36U A52G] | < 1e-05 |
| AUAAAAGCGCCAGAAUUACAGAAAUGUAGUUGACGAGGAGGAGGUUUAUCUCAUUUUCGGCGGAUGCAUUUAAA [C16U G51U A52C C68A C70U C71U] | < 1e-05 |
| AUAAAAGCGCCAGAACUACAGAAAUGUAAUUGGCGAGAAGGAGGUUUAUCGAAUUUUCGUCGGAUGCCUCCAAA [G29A A33G G38A G60U] | < 1e-05 |
| AUAAAAGCGCCAGAACUACAUAAAUGUACUUGACGAGGAGGGGGUUUAUCGAAUUUUCGGCGGAUGCCUCCAAA [G21U G29C A42G] | 0.000483 ± 0.00016 |
| AUAAAAGCGCCAGAAUUACAGAAAUGUAGAUGACGAGGAGGAGGUUUAUCGAAUUUUCGGCGGAAGCCUCCAAA [C16U U30A U65A] | 8.89e-05 ± 1.9e-05 |
| AUAAAAGCGCCAGAAUUACAGAAAUGUAGUUGACGAGGAGCAGGUUUAUCGAAUUUUCGGCGGAUGCCUACAAA [C16U G41C C70A] | 0.000347 ± 0.00017 |
| AUAAAAGCGCCAGAAGUACAGAAAUGUAGUUGACGAGGAGGAAGUUUAUCGAAUUUACGGCGGAUUCCACCAAA [C16G G43A U57A G66U U69A] | < 1e-05 |
| AUAAAAGCGCCAGAAGUACAGAAAUGUAGUUGACGAAGAGGAGGUUUGUCGAAUUUUCGACGGAGGUCUCCAAA [C16G G37A A48G G60A U65G C67U] | < 1e-05 |
| AUAAAAGCGCCAGAAGUACAGAAAUGUAGUUGACGAGAAGGAGGUUCAUCGAAUUUUCGGCAGAUGCCUCCAAA [C16G G38A U47C G62A] | < 1e-05 |
| AUAAAAGCGCCAGAACUACAGCAAUGUAGUUGAGGAGGAGGCGGUUUAUUGAAUUUUCGGCGGAUUCUGGUAAA [A22C C34G A42C C50U G66U C68U U69G C70G C71U] | < 1e-05 |
| AUAAAAGCGCCAGAAUUACAGAAAUGUAGUUAACGAGGAGAAGGUUUAUCGAAUUUUCGGCGGAUGCCUCCAAA [C16U G32A G41A] | 0.000133 ± 2.7e-05 |
| AUAAAAGCGCCAGAACUACAGAAAUGUCGUUGACGAGGAGGAGGUUUAGCGAAUAUUCGGCGGAUGCCUCCAAA [A28C U49G U55A] | 0.000284 ± 7.5e-05 |
| AUAAAAGCGCCAGAAUUACAGAAAUGUAGUUGAAGAGGAGGAGGUUUAUCGAAUUUUCCGCGGAUGCCACCAAA [C16U C34A G59C U69A] | < 1e-05 |
| AUAAAAGCGCCAGAACUACAGAAAUGUAAUUGACGAGGAGGAGGUUUAUCGAAUUUUCGGCGGACGCCUCCAAA [G29A U65C] | 6.71e-05 ± 1.9e-05 |
| AUAAAAGCGCCAGAAUUACAGAAAUGUAGUUGACGAGGAGGAAGUUUAACGAAUUUUCGGCGGAUGCCUCCAAA [C16U G43A U49A] | < 1e-05 |
| AUAAAAGCGCCAGAAUUACAGAAAUGUAGUUGACGCGGAGGAGGUUUAUCGCAUUUUCGGAGGAUGCCUCCAAA [C16U A36C A52C C61A] | < 1e-05 |

Variants of: B1
Assay: self-cleavage kobs at 10000 uM GlcN6P; higher = faster cleavage; RNA array
Conditions: with glucosamine-6-phosphate
Method in brief: as §1

| Variant | self-cleavage kobs at 10000 uM GlcN6P [s⁻¹] |
| --- | --- |
| AUAAAAGCGCCAGAACUACAGAAAUGUAAUUGACCAGGAGGAGGUUUAUCGAAUUUUCGGCGGAUGCCUCAAAA [G29A G35C C71A] | < 1e-05 |
| AUAAAAGCGCCAGAAUUACAGAAAUGUAAUUGACGAGGAGUAGGUUUAUCUAAUUUUCGGCGGAUGCCUCCAAA [C16U G29A G41U G51U] | < 1e-05 |
| AUAAAAGCGCCAGAAUUACAGAAAUGUAGUUAACGAGGAGAAGGUUUAUCGAAUUUUCGGCGGAUGCCUCCAAA [C16U G32A G41A] | 0.00033 ± 9.1e-05 |
| AUAAAAGCGCCAGAACUACAGAAAUGUAAUUGACGAGGAGGAGGUUUAUCGAAUUUUCGGCGGACGCCUCCAAA [G29A U65C] | 8.99e-05 ± 3.1e-05 |
